US5760185
Where two headings read alike, the source gives them in different places.

Legend:
[1] = biological target: feline herpes virus-1 (FHV-1) viral particle, K1 strain
[2] = biological target: feline herpes virus-1 (FHV-1) viral particle, K1 strain; remark: listed apart in the source

B1: anti-FHV-1 chimeric antibody FH2 (antibody, V domains shown)
VH: QVTLKESGPGILQPSQTLSLTCSFSGFSLSTSGMGAGWIRQPSGKGLEWLAHIWWDDVKRYNPALKSRLTISKDTSSSQVFLKIASVDTADTATYFCVRSQIYFDYDGAWFPFWGQGTLVTVSA
VL: DIVLTQSPATLSVTPGDSVSLSCRASQSISNNLHWYQQKSHESPRLLIKYASQSISGIPSRFSGSGSGTDFTLSINSVETEDFGMYFCQQSNSWPHTFGAGTKLELKS
- Minimum Effective Concentration for Neutralization [1]: 1.95 µg/mL

B2: mouse monoclonal antibody JH2 (antibody, V domains shown)
VH: B1 VH
VL: DIVLTQSPATLSVTPGDSVSLSCRASQSISNNLHWYQQKSHESPRLLIKYASQSISGIPSRFSGSGSGTDFTLSINSVETEDFGMYFCQQSNSWPHTFGAGTKLELK
- Minimum Effective Concentration for Neutralization [2]: 0.39 µg/mL
- Minimum Effective Concentration for Neutralization [1]: 1.25 µg/mL
